# Reference: patent US20200171136A1 (SUMITOMO DAINIPPON PHARMA, published 2020)
# Molecular target: T1, Endoplasmic reticulum aminopeptidase 1 (ERAP1) (UniProt Q9NZ08 1-941, limits assumed)
# Test: cell-based or functional assay
# T1 sequence (Q9NZ08 whole entry): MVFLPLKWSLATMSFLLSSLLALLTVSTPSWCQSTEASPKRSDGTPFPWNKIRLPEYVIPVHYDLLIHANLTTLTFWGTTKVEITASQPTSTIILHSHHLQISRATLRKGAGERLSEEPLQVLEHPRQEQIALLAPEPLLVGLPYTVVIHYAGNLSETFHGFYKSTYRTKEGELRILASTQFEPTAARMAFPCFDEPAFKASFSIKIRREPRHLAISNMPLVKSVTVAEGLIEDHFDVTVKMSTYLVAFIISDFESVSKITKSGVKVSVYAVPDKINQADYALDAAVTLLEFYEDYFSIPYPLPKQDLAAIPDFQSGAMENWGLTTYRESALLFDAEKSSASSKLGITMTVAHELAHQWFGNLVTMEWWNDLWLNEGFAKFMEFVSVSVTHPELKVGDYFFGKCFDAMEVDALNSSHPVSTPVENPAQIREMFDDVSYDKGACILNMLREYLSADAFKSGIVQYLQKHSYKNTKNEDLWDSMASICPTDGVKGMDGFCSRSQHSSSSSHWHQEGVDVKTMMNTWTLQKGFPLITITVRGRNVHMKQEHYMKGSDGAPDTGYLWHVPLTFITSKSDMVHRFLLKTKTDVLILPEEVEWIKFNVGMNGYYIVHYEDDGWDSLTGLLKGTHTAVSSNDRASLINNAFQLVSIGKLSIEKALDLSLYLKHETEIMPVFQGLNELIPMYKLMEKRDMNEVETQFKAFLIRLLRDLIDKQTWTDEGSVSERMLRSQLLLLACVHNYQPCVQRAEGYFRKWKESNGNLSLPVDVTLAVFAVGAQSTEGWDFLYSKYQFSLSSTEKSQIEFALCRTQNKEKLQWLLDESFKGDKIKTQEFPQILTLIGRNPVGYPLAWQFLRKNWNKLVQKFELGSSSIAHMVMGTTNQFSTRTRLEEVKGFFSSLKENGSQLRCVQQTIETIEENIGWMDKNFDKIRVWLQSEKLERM
Binder,formation rate (%) 1 hr later [%],formation rate (%) 2 hr later [%],formation rate (%) 4 hr later [%],formation rate (%) 8 hr later [%]
CVLQELNVTV [peptide CVLQELNVTV (SEQ ID NO: 99)],83.4,85.6,78.8,83.9
CLGLYDGMEHL [peptide CLGLYDGMEHL (SEQ ID NO: 90)],58.3,94.9,88.4,88.3
CLVLQELNVTV [peptide CLVLQELNVTV (SEQ ID NO: 93)],31.1,36.9,38.1,36.1
CAVLQELNVTV [peptide CAVLQELNVTV (SEQ ID NO: 92)],46.1,49.9,51.3,53.5
H-CGLYDGMEHL-OH [peptide CGLYDGMEHL (SEQ ID NO: 98)],95.1,106,100,101
CMVLQELNVTV [peptide CMVLQELNVTV (SEQ ID NO: 94)],28.7,34.5,36.5,36.8
CAGLYDGMEHL [peptide CAGLYDGMEHL (SEQ ID NO: 89)],87.8,99.4,103,97.5
CMGLYDGMEHL [peptide CMGLYDGMEHL (SEQ ID NO: 91)],90.6,103,96,101

# Molecular target: T1, Endoplasmic reticulum aminopeptidase 1 …
# Test: cell-based or functional assay
# Remark: another data set of the same source
row,Binder,formation rate of … (SEQ ID NO: 19)(%)
1,WCGLYDGMEHL [peptide WCGLYDGMEHL (SEQ ID NO: 182)],0
2,QCGLYDGMEHL [peptide QCGLYDGMEHL (SEQ ID NO: 178)],3.6
3,VCGLYDGMEHL [peptide VCGLYDGMEHL (SEQ ID NO: 184)],2.4
4,YCGLYDGMEHL [peptide YCGLYDGMEHL (SEQ ID NO: 183)],5.7
5,ACGLYDGMEHL [peptide ACGLYDGMEHL (SEQ ID NO: 185)],5.2
6,RCGLYDGMEHL [peptide RCGLYDGMEHL (SEQ ID NO: 186)],0
7,PCGLYDGMEHL [peptide PCGLYDGMEHL (SEQ ID NO: 179)],19.2
8,SCGLYDGMEHL [peptide SCGLYDGMEHL (SEQ ID NO: 180)],22.2
9,TCGLYDGMEHL [peptide TCGLYDGMEHL (SEQ ID NO: 181)],7.3

# Molecular target: T1, Endoplasmic reticulum aminopeptidase 1 …
# Test: cell-based or functional assay
# Remark: another data set of the same source
row,Binder,formation rate of … (SEQ ID NO: 19)(%)
1,CFGLYDGMEHL [peptide CFGLYDGMEHL (SEQ ID NO: 168)],0
2,CHGLYDGMEHL [peptide CHGLYDGMEHL (SEQ ID NO: 165)],0
3,CEGLYDGMEHL [peptide CEGLYDGMEHL (SEQ ID NO: 163)],6.2
4,CQGLYDGMEHL [peptide CQGLYDGMEHL (SEQ ID NO: 162)],56.9
5,CGGLYDGMEHL [peptide CGGLYDGMEHL (SEQ ID NO: 164)],0
6,CKGLYDGMEHL [peptide CKGLYDGMEHL (SEQ ID NO: 167)],0
7,CPGLYDGMEHL [peptide CPGLYDGMEHL (SEQ ID NO: 169)],0
8,CIGLYDGMEHL [peptide CIGLYDGMEHL (SEQ ID NO: 166)],0.4

# Molecular target: T1, Endoplasmic reticulum aminopeptidase 1 …
# Test: cell-based or functional assay
# Remark: another data set of the same source
row,Binder,formation rate of … (SEQ ID NO: 19)(%)
1,CNGLYDGMEHL [peptide CNGLYDGMEHL (SEQ ID NO: 175)],82.2
2,CYGLYDGMEHL [peptide CYGLYDGMEHL (SEQ ID NO: 172)],0
3,CWGLYDGMEHL [peptide CWGLYDGMEHL (SEQ ID NO: 171)],0
4,CVGLYDGMEHL [peptide CVGLYDGMEHL (SEQ ID NO: 173)],0
5,CTGLYDGMEHL [peptide CTGLYDGMEHL (SEQ ID NO: 170)],89.4
6,CDGLYDGMEHL [peptide CDGLYDGMEHL (SEQ ID NO: 176)],25
7,CRGLYDGMEHL [peptide CRGLYDGMEHL (SEQ ID NO: 174)],0
8,CSGLYDGMEHL [peptide CSGLYDGMEHL (SEQ ID NO: 177)],1.1

# Molecular target: T1, Endoplasmic reticulum aminopeptidase 1 …
# Test: cell-based or functional assay
# Remark: another data set of the same source
row,Binder,formation rate of … (SEQ ID NO: 43)(%)
1,SCVLQELNVTV [peptide SCVLQELNVTV (SEQ ID NO: 157)],1.3
2,YCVLQELNVTV [peptide YCVLQELNVTV (SEQ ID NO: 160)],0.7
3,GCVLQELNVTV [peptide GCVLQELNVTV (SEQ ID NO: 149)],1.1
4,ACVLQELNVTV [peptide ACVLQELNVTV (SEQ ID NO: 143)],1.8

# Molecular target: T1, Endoplasmic reticulum aminopeptidase 1 …
# Test: cell-based or functional assay
# Remark: another data set of the same source
row,Binder,formation rate of … (SEQ ID NO: 19)(%)
1,HCGLYDGMEHL [peptide HCGLYDGMEHL (SEQ ID NO: 191)],0
2,MCGLYDGMEHL [peptide MCGLYDGMEHL (SEQ ID NO: 195)],5.8
3,FCGLYDGMEHL [peptide FCGLYDGMEHL (SEQ ID NO: 196)],17.6
4,LCGLYDGMEHL [peptide LCGLYDGMEHL (SEQ ID NO: 193)],0
5,KCGLYDGMEHL [peptide KCGLYDGMEHL (SEQ ID NO: 194)],0
6,NCGLYDGMEHL [peptide NCGLYDGMEHL (SEQ ID NO: 187)],18.2
7,ICGLYDGMEHL [peptide ICGLYDGMEHL (SEQ ID NO: 192)],0
8,ECGLYDGMEHL [peptide ECGLYDGMEHL (SEQ ID NO: 189)],2.9
9,DCGLYDGMEHL [peptide DCGLYDGMEHL (SEQ ID NO: 188)],3.2
10,GCGLYDGMEHL [peptide GCGLYDGMEHL (SEQ ID NO: 190)],10.4
